Literature values as cited in paper PMC2645924.

Experiments:
[1] = target: Cys165 (UniProt position 166, HPGEVCPAKWK); test: chemical modification; conditions: Reduced mutant proteins
[2] = target: Cys46 (UniProt position 47, DFTFVCPTELG); test: chemical modification; conditions: Reduced mutant proteins
[3] = target: Cys32 (UniProt position 33, FWAEWCGPCKM)

In the case of “AhpC C46S mutant (only C165 remains) (Salmonella typhimurium; C46S)”, the pKa [1] is given as 8.7.
In the case of “AhpC C165S mutant (only C46 remains) (Salmonella typhimurium; C165S)”, the pKa [2] is given as “less than 5”.
For Thioredoxin (Escherichia coli), the pKa [3] is listed as 6.7 – 7.1.
